Experimental findings from paper PMC10531985, “A Unique G-Quadruplex Aptamer: A Novel Approach for Cancer Cell Recognition, Cell Membrane Visualization, and RSV Infection Detection” are described below.

Data set [1] addresses T1, nucleolin (NCL) (Homo sapiens, UniProt P19338 1-710). The data set can be described thus: EMSA; K+; SPR: 10 mM HEPES, 150 mM KCl, 3 mM EDTA, pH 7.4, NCL on CM5 chip, temperature not stated; EMSA: 5x binding buffer listed as 40 mM Tris, 30 mM KCl, 1 mM MgCl2, 1 mM DTT, pH 8.0, 200 nM probe, room temperature 25 min, gel with 20 mM KCl at 4 C. The following applies: protein: recombinant; label: 5'-FAM; parallel G4.

Data set [2] deals with T1, nucleolin (NCL). The data set can be described thus: SPR; 150 mM KCl; SPR: 10 mM HEPES, 150 mM KCl, 3 mM EDTA, pH 7.4, NCL on CM5 chip, temperature not stated; EMSA: 5x binding buffer listed as 40 mM Tris, 30 mM KCl, 1 mM MgCl2, 1 mM DTT, pH 8.0, 200 nM probe, room temperature 25 min, gel with 20 mM KCl at 4 C. To be noted: protein: recombinant, parallel G4.
In data set [3] the target is T1, nucleolin (NCL). The data set can be described thus: SPR; up to 2 uM aptamer; SPR: 10 mM HEPES, 150 mM KCl, 3 mM EDTA, pH 7.4, NCL on CM5 chip, temperature not stated; EMSA: 5x binding buffer listed as 40 mM Tris, 30 mM KCl, 1 mM MgCl2, 1 mM DTT, pH 8.0, 200 nM probe, room temperature 25 min, gel with 20 mM KCl at 4 C. The following applies: protein: recombinant; no G4.

T1 sequence (P19338 whole entry): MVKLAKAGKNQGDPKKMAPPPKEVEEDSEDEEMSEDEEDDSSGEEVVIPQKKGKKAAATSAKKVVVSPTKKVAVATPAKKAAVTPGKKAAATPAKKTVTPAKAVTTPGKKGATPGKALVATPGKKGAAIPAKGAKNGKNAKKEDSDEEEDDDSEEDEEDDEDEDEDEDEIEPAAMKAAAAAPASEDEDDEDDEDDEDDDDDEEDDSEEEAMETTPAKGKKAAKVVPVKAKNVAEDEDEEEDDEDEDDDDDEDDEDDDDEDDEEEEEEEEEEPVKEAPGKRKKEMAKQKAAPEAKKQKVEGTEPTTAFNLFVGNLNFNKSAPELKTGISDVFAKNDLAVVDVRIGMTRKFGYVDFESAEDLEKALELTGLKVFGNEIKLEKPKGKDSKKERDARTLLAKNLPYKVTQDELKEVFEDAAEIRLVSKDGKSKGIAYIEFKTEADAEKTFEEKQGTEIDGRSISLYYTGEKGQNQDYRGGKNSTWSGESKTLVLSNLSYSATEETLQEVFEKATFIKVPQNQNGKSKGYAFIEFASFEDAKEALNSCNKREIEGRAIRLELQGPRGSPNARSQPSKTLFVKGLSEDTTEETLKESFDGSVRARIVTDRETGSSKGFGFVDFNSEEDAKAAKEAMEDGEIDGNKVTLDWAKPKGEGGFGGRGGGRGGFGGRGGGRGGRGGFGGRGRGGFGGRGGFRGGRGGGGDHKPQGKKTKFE

Consider GUUAGGGUUUAUGGGAUUG (structured_RNA) [Apt-3-F], for which the Kd with nucleolin (NCL) [1] amounted to 77.1 nM; with nucleolin (NCL) [2] (label: 5'-FAM) it was 24.9 nM. As to GUUAGGGUUUAUGGGAUUG (structured_RNA) [Apt-3], the equilibrium dissociation constant (Kd) in the data set with nucleolin (NCL) [2] turned out to be 20.4 nM. Take GUUAGAGUUUAUGAGAUUG (ssRNA) [Apt-3 mutant]: the binding result with nucleolin (NCL) [3] is on record as “no binding”.
